Experimental data from the supplement of paper PMC7125110.
± gives the standard error. Fewer inactive variants are shown than the library holds.

B1: glmS ribozyme (parent)
chain: AUAAAAGCGCCAGAACUACAGAAAUGUAGUUGACGAGGAGGAGGUUUAUCGAAUUUUCGGCGGAUGCCUCCAAA

What was measured:
Settings in all cases: with glucosamine-6-phosphate
[1] = variants of: B1; assay: self-cleavage kobs at 640 uM GlcN6P; higher = faster cleavage; RNA array
Summary of the method: (§1)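 Barcoded ribozyme variants were transcribed in situ on sequenced MiSeq chips by E. coli RNA polymerase. At 37 °C, a hybridised Cy3 probe tracked them while glucosamine-6-phosphate (40 μM to 10 mM) in HEPES/KCl/Mg(OAc)2 buffer flowed in and tiles were imaged over ~14 h. Per-tile medians of signals normalised to baseline and to non-cleaving reference variants were fit to one- or two-exponential decays, giving kobs. kcat and KM came from weighted Michaelis–Menten fits across concentrations.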

[2] = variants of: B1; assay: self-cleavage kobs at 2500 uM GlcN6P; higher = faster cleavage; RNA array
Summary of the method: as §1

[3] = variants of: B1; assay: self-cleavage kobs at 10000 uM GlcN6P; higher = faster cleavage; RNA array
Summary of the method: as §1

A12U G32A A52U U54C C61G G63U C71A
self-cleavage kobs at 640 uM GlcN6P [1]: < 1e-05 s⁻¹
self-cleavage kobs at 2500 uM GlcN6P [2]: < 1e-05 s⁻¹

A33G G40C G41C G43A U49A
self-cleavage kobs at 640 uM GlcN6P [1]: < 1e-05 s⁻¹
self-cleavage kobs at 2500 uM GlcN6P [2]: < 1e-05 s⁻¹

G7A A53C C68U
self-cleavage kobs at 640 uM GlcN6P [1]: < 1e-05 s⁻¹
self-cleavage kobs at 2500 uM GlcN6P [2]: < 1e-05 s⁻¹

C8U G13U A14U
self-cleavage kobs at 640 uM GlcN6P [1]: < 1e-05 s⁻¹

C34U A36G G44A C58A C68U
self-cleavage kobs at 640 uM GlcN6P [1]: < 1e-05 s⁻¹
self-cleavage kobs at 2500 uM GlcN6P [2]: < 1e-05 s⁻¹

G13C A15C A52U G66C
self-cleavage kobs at 640 uM GlcN6P [1]: < 1e-05 s⁻¹

C11A A33G G63A G66U
self-cleavage kobs at 640 uM GlcN6P [1]: < 1e-05 s⁻¹

C10A C16U C67G
self-cleavage kobs at 640 uM GlcN6P [1]: 0.000345 ± 0.00015 s⁻¹

A12G C58G C71U
self-cleavage kobs at 640 uM GlcN6P [1]: 9.42e-05 ± 1.7e-05 s⁻¹
self-cleavage kobs at 2500 uM GlcN6P [2]: 3.81e-05 ± 1.2e-05 s⁻¹

A6C C11U G51C C67G C68A
self-cleavage kobs at 640 uM GlcN6P [1]: 0.000105 ± 2.8e-05 s⁻¹
self-cleavage kobs at 2500 uM GlcN6P [2]: 0.00015 ± 3.5e-05 s⁻¹

A39U U46A
self-cleavage kobs at 640 uM GlcN6P [1]: 0.000305 ± 7.5e-05 s⁻¹
self-cleavage kobs at 2500 uM GlcN6P [2]: 0.000711 ± 0.00023 s⁻¹
self-cleavage kobs at 10000 uM GlcN6P [3]: 0.00219 ± 0.00035 s⁻¹

G41U U45G U47A C71U
self-cleavage kobs at 640 uM GlcN6P [1]: 5.62e-05 ± 2.2e-05 s⁻¹

G29A G35U A42U
self-cleavage kobs at 640 uM GlcN6P [1]: < 1e-05 s⁻¹
self-cleavage kobs at 2500 uM GlcN6P [2]: < 1e-05 s⁻¹
self-cleavage kobs at 10000 uM GlcN6P [3]: < 1e-05 s⁻¹

C11G A48G C71U
self-cleavage kobs at 640 uM GlcN6P [1]: < 1e-05 s⁻¹
self-cleavage kobs at 2500 uM GlcN6P [2]: < 1e-05 s⁻¹

G37U G51A G66C
self-cleavage kobs at 640 uM GlcN6P [1]: < 1e-05 s⁻¹

G41C G51U U55G
self-cleavage kobs at 640 uM GlcN6P [1]: < 1e-05 s⁻¹
self-cleavage kobs at 2500 uM GlcN6P [2]: < 1e-05 s⁻¹

G40C U47C C68G
self-cleavage kobs at 640 uM GlcN6P [1]: < 1e-05 s⁻¹

C16G U30A U55G
self-cleavage kobs at 640 uM GlcN6P [1]: 0.000125 ± 5.7e-05 s⁻¹
self-cleavage kobs at 2500 uM GlcN6P [2]: 8.11e-05 ± 3.1e-05 s⁻¹

G13A A42C G51C C61A
self-cleavage kobs at 640 uM GlcN6P [1]: < 1e-05 s⁻¹
self-cleavage kobs at 2500 uM GlcN6P [2]: < 1e-05 s⁻¹

C10U G29A C61A G62A C70U
self-cleavage kobs at 640 uM GlcN6P [1]: 7.67e-05 ± 3.8e-05 s⁻¹

C58G A64G U65A G66U C67G U69C
self-cleavage kobs at 640 uM GlcN6P [1]: 9.79e-05 ± 2.9e-05 s⁻¹

A14C C58G C67U
self-cleavage kobs at 640 uM GlcN6P [1]: 5.66e-05 ± 2.2e-05 s⁻¹
self-cleavage kobs at 2500 uM GlcN6P [2]: 5.98e-05 ± 1.9e-05 s⁻¹

A6U G7C G13U A36C
self-cleavage kobs at 640 uM GlcN6P [1]: < 1e-05 s⁻¹

G35C G59U C61A
self-cleavage kobs at 640 uM GlcN6P [1]: < 1e-05 s⁻¹

G7C A12U A15C
self-cleavage kobs at 640 uM GlcN6P [1]: < 1e-05 s⁻¹

C10G G13U G41U U49G
self-cleavage kobs at 640 uM GlcN6P [1]: < 1e-05 s⁻¹

G40U U49A
self-cleavage kobs at 640 uM GlcN6P [1]: < 1e-05 s⁻¹
self-cleavage kobs at 2500 uM GlcN6P [2]: < 1e-05 s⁻¹
self-cleavage kobs at 10000 uM GlcN6P [3]: < 1e-05 s⁻¹

C8A C16A G32C A42G
self-cleavage kobs at 640 uM GlcN6P [1]: < 1e-05 s⁻¹

U30C G37U C58A C68G
self-cleavage kobs at 640 uM GlcN6P [1]: 7.09e-05 ± 2.2e-05 s⁻¹
self-cleavage kobs at 2500 uM GlcN6P [2]: 0.000165 ± 3.6e-05 s⁻¹

A14G U31A G41A C71U
self-cleavage kobs at 640 uM GlcN6P [1]: 0.000186 ± 7.9e-05 s⁻¹
self-cleavage kobs at 2500 uM GlcN6P [2]: 0.000396 ± 0.00011 s⁻¹

A6G G7A G13U A15C C68A C70A
self-cleavage kobs at 640 uM GlcN6P [1]: < 1e-05 s⁻¹

A33U U55C C70U
self-cleavage kobs at 640 uM GlcN6P [1]: < 1e-05 s⁻¹

G41A G51C A64C
self-cleavage kobs at 640 uM GlcN6P [1]: < 1e-05 s⁻¹

G35U G40C U49C G51A
self-cleavage kobs at 640 uM GlcN6P [1]: < 1e-05 s⁻¹

A42U G51C G59U
self-cleavage kobs at 640 uM GlcN6P [1]: < 1e-05 s⁻¹

C10U C61A C67G C71G
self-cleavage kobs at 640 uM GlcN6P [1]: 0.000112 ± 3.5e-05 s⁻¹
self-cleavage kobs at 2500 uM GlcN6P [2]: 7.34e-05 ± 2.4e-05 s⁻¹

C34A A42C C70A
self-cleavage kobs at 640 uM GlcN6P [1]: < 1e-05 s⁻¹

G9C U45A C68A
self-cleavage kobs at 640 uM GlcN6P [1]: < 1e-05 s⁻¹
self-cleavage kobs at 2500 uM GlcN6P [2]: < 1e-05 s⁻¹

G13U A39G C67A
self-cleavage kobs at 640 uM GlcN6P [1]: 9.82e-05 ± 3.9e-05 s⁻¹

G7U A15C A39C
self-cleavage kobs at 640 uM GlcN6P [1]: < 1e-05 s⁻¹

G32U G41A C68A
self-cleavage kobs at 640 uM GlcN6P [1]: < 1e-05 s⁻¹

A6G G38A C68G
self-cleavage kobs at 640 uM GlcN6P [1]: < 1e-05 s⁻¹

U49C U55A
self-cleavage kobs at 640 uM GlcN6P [1]: < 1e-05 s⁻¹
self-cleavage kobs at 2500 uM GlcN6P [2]: < 1e-05 s⁻¹

C8U A36C A48G U49C
self-cleavage kobs at 640 uM GlcN6P [1]: < 1e-05 s⁻¹
self-cleavage kobs at 2500 uM GlcN6P [2]: < 1e-05 s⁻¹

G35A A36U G41A C58A
self-cleavage kobs at 640 uM GlcN6P [1]: < 1e-05 s⁻¹
self-cleavage kobs at 2500 uM GlcN6P [2]: < 1e-05 s⁻¹

G13U U56C G62U
self-cleavage kobs at 640 uM GlcN6P [1]: < 1e-05 s⁻¹
self-cleavage kobs at 2500 uM GlcN6P [2]: < 1e-05 s⁻¹
self-cleavage kobs at 10000 uM GlcN6P [3]: < 1e-05 s⁻¹

G40C U54C U56A
self-cleavage kobs at 640 uM GlcN6P [1]: 0.000313 ± 5.9e-05 s⁻¹
self-cleavage kobs at 2500 uM GlcN6P [2]: 0.000505 ± 0.00011 s⁻¹

C11U A15C U31C
self-cleavage kobs at 640 uM GlcN6P [1]: 6.01e-05 ± 2.1e-05 s⁻¹
self-cleavage kobs at 2500 uM GlcN6P [2]: 0.000159 ± 5e-05 s⁻¹

G13U G51C G62C
self-cleavage kobs at 640 uM GlcN6P [1]: < 1e-05 s⁻¹

U31G G60U U65A
self-cleavage kobs at 640 uM GlcN6P [1]: < 1e-05 s⁻¹

A36U C61G C70A
self-cleavage kobs at 640 uM GlcN6P [1]: 0.000101 ± 3e-05 s⁻¹

G29C G44C C67G
self-cleavage kobs at 640 uM GlcN6P [1]: 0.000127 ± 3.8e-05 s⁻¹
self-cleavage kobs at 2500 uM GlcN6P [2]: 0.000256 ± 0.00011 s⁻¹

G7C U31C G40C
self-cleavage kobs at 640 uM GlcN6P [1]: < 1e-05 s⁻¹
self-cleavage kobs at 2500 uM GlcN6P [2]: < 1e-05 s⁻¹

A33U G35U U54A
self-cleavage kobs at 640 uM GlcN6P [1]: < 1e-05 s⁻¹
self-cleavage kobs at 10000 uM GlcN6P [3]: < 1e-05 s⁻¹

U49A C50U C67A C68G C71A
self-cleavage kobs at 640 uM GlcN6P [1]: 5.04e-05 ± 1.8e-05 s⁻¹

A14G G43U G63U C70A
self-cleavage kobs at 640 uM GlcN6P [1]: < 1e-05 s⁻¹
self-cleavage kobs at 2500 uM GlcN6P [2]: < 1e-05 s⁻¹

U30G G41U C50A
self-cleavage kobs at 640 uM GlcN6P [1]: < 1e-05 s⁻¹
self-cleavage kobs at 2500 uM GlcN6P [2]: < 1e-05 s⁻¹

A15U U55C C70U
self-cleavage kobs at 640 uM GlcN6P [1]: 4.5e-05 ± 2.2e-05 s⁻¹
self-cleavage kobs at 2500 uM GlcN6P [2]: 9.45e-05 ± 3.3e-05 s⁻¹

G7C A48C C70A
self-cleavage kobs at 640 uM GlcN6P [1]: < 1e-05 s⁻¹

A6G U31G U45A A53G C61A G66C
self-cleavage kobs at 640 uM GlcN6P [1]: < 1e-05 s⁻¹

G40U G59C C71U
self-cleavage kobs at 640 uM GlcN6P [1]: < 1e-05 s⁻¹
self-cleavage kobs at 2500 uM GlcN6P [2]: < 1e-05 s⁻¹

A12G G66C C68A
self-cleavage kobs at 640 uM GlcN6P [1]: 6.5e-05 ± 2.5e-05 s⁻¹

G7U C61U C68G
self-cleavage kobs at 640 uM GlcN6P [1]: 0.00114 ± 0.00049 s⁻¹

C10U C11G A14G C16A G41A G51U
self-cleavage kobs at 640 uM GlcN6P [1]: < 1e-05 s⁻¹

U55G U56A C71G
self-cleavage kobs at 640 uM GlcN6P [1]: 8.05e-05 ± 1.8e-05 s⁻¹

A64C U65C
self-cleavage kobs at 640 uM GlcN6P [1]: < 1e-05 s⁻¹
self-cleavage kobs at 10000 uM GlcN6P [3]: < 1e-05 s⁻¹

G32C G37U G51C
self-cleavage kobs at 640 uM GlcN6P [1]: < 1e-05 s⁻¹

G13U G63A C71U
self-cleavage kobs at 640 uM GlcN6P [1]: < 1e-05 s⁻¹
self-cleavage kobs at 2500 uM GlcN6P [2]: < 1e-05 s⁻¹

A15U A33G A64G C67A C70A C71U
self-cleavage kobs at 640 uM GlcN6P [1]: 9.67e-05 ± 3.1e-05 s⁻¹

G32U G35C U46A C67G C68A
self-cleavage kobs at 640 uM GlcN6P [1]: 0.000467 ± 0.00023 s⁻¹

C16U A39G G40A A42G G43A U45G
self-cleavage kobs at 640 uM GlcN6P [1]: 0.00638 ± 0.0016 s⁻¹
self-cleavage kobs at 2500 uM GlcN6P [2]: 0.0072 ± 0.0024 s⁻¹

A12G U46A
self-cleavage kobs at 640 uM GlcN6P [1]: 6e-05 ± 1.9e-05 s⁻¹
self-cleavage kobs at 2500 uM GlcN6P [2]: 4.25e-05 ± 1.5e-05 s⁻¹
self-cleavage kobs at 10000 uM GlcN6P [3]: 0.000187 ± 4.1e-05 s⁻¹

G7A U31G C67U
self-cleavage kobs at 640 uM GlcN6P [1]: < 1e-05 s⁻¹

G7A G38A G63U C70G
self-cleavage kobs at 640 uM GlcN6P [1]: 0.000112 ± 3.6e-05 s⁻¹

A15U C34G G63A
self-cleavage kobs at 640 uM GlcN6P [1]: < 1e-05 s⁻¹
